In publication PMC10066039, “Bile salt hydrolases shape the bile acid landscape and restrict Clostridioides difficile growth in the murine gut” (Nature Microbiology, 2023):

Legend:
Assay in all cases: crystal structure; crystals grown at 20 °C by sitting drop vapour diffusion (LgasBSHa with taurine and CDCA: hanging drop); data at 100 K; molecular replacement with PDB 2HEZ; homo-tetramer in the crystal structure
LreuBSH = target: LreuBSH
LingBSH = target: LingBSH
[1] = target: LgasBSHb (Lactobacillus gasseri)
[2] = target: LjohBSHc (johnsonii (cluster johnsonii_1, Lactobacillaceae))
LaciBSHa = target: LaciBSHa
[3] = target: the molecule itself

In the case of “LreuBSH (from UniProt A0A805Z5R7 1-316) (enzyme)”, the stoichiometry N (LreuBSH) is reported as 4.

Molecule “LingBSH (from UniProt A0A805Z5R7 1-316) (enzyme)” has a stoichiometry N (LingBSH) of 4.

“LgasBSHb (from UniProt A0A805Z5R7 1-316) (enzyme)” gave a stoichiometry N [1] of 4.

Molecule “LjohBSHc (from UniProt A0A805Z5R7 1-316) (enzyme)” has a stoichiometry N [2] of 4.

With “LaciBSHa (from UniProt A0A805Z5R7 1-316) (enzyme)” the stoichiometry N (LaciBSHa) was 4.

B1: LgasBSHa (enzyme, Lactobacillus gasseri, UniProt A0A805Z5R7 1-316, looked up)
chain: MCTGLRFTDDQGNLYFGRNLDVGQDYGEGVIITPRNYPLPYKFLDNTTTKKAVIGMGIVVDGYPSYFDCFNEDGLGIAGLNFPHFAKFSDGPIDGKINLASYEIMLWVTQNFTKVSDVKEALKNVNLVNEAINSSFAVAPLHWIISDKDEAIIVEVSKQYGMKVFDDKLGVLTNSPDFNWHLTNLGNYTGLDPHDATAQSWNGQKVAPWGVGTGSLGLPGDSIPADRFVKAAYLNVNYPTVKGEKANVAKFFNILKSVAMIKGSVVNKLGSDEYTVYTACYSAATKTYYCNFENDFELKTYKLDDETMNADKLITY
notes: bile salt hydrolase LgasBSHa (cluster gasseri_1), amplified from genomic DNA; selectivity loop GVG with V211 in its centre; catalytic cysteine at position 2; Crystallised with taurine and with taurine plus CDCA; also called taurine-preferring BSH; bile salt hydrolase; source: E. coli BL21-G, purified (HisTrap HP, Superdex 200)
In the case of B1, the “stoichiometry N” value [3] is reported as 4.
